“And” between values parts separate entries of the source, which are not always exact repeats. Identical values can stand only once.
Assays:
[1] = target: biotinylated CCR5 Nt sulfopeptide 2-18
[2] = target: CCR5 on L1.2-CCR5+ cells (Homo sapiens (Human)) (UniProt P51681)
gp120JR-FL (HIV-1 JR-FL) = gp120JR-FL (HIV-1 JR-FL) (UniProt P20871); test: cell-based or functional assay
[3] = target: gp120DH123/CD4-IgG2 complex (HIV-1 DH123); test: SPR, complex 50 nM over immobilised sulfopeptide 2-18 with MAb (150 mM [sic])
[4] = target: gp120JR-FL/CD4-IgG2 complex (HIV-1 JR-FL)
[5] = target: biotinylated CCR5 Nt sulfopeptide 2-18; test: direct ELISA, biotinylated peptide on streptavidin plate, complex titrated (CD4-IgG2 concentration), anti-human IgG-HRP
[6] = target: biotinylated CCR5 Nt sulfopeptide 2-18; test: peptide ELISA, gp120/CD4-IgG2 complexes
[7] = target: biotinylated CCR5 Nt sulfopeptide 10-18; test: ELISA, biotinylated peptide on streptavidin plate, anti-human IgG-HRP
[8] = target: biotinylated CCR5 Nt sulfopeptide 6-16; test: as above
[9] = target: biotinylated CCR5 Nt sulfopeptide 10-15; test: as above
[10] = target: biotinylated CCR5 Nt sulfopeptide 8-15; test: as above
[11] = target: CCR5 on L1.2-CCR5+ cells (Homo sapiens (Human)) (UniProt P51681); remark: listed apart in the source

Substance: gp120JR-FL R326A/CD4-IgG2 complex
- fold decrease in binding vs wild-type gp120JR-FL [1]: > 10 fold

Substance: gp120JR-FL S306A/CD4-IgG2 complex
- fold decrease in binding vs wild-type gp120JR-FL [2]: 5 fold and 10 fold

Substance: gp120JR-FL R313A/CD4-IgG2 complex
- fold decrease in binding vs wild-type gp120JR-FL [2]: 5 fold and 10 fold

Substance: CCR5 Nt peptide S-10/14
- inhibition of entry of Nlluc+env- particles pseudotyped with HIV-1JR-FL envelope (luciferase; HeLa-CD4+CCR5+ and U87MG-CD4+CCR5+ cells; peptide 100 µM) (gp120JR-FL (HIV-1 JR-FL)): 50%

Substance: gp120JR-FL I322A/CD4-IgG2 complex
- fold decrease in binding vs wild-type gp120JR-FL [1]: > 10 fold

Substance: anti-gp120 MAb 48d (antibody)
- % inhibition of complex binding to sulfopeptide 2-18 [3]: > 90%
- % inhibition of complex binding to sulfopeptide 2-18 [4]: > 90%

Substance: gp120JR-FL R444A/CD4-IgG2 complex
- fold decrease in binding vs wild-type gp120JR-FL [1]: 5 fold and 10 fold

Substance: gp120JR-FL Q422A/CD4-IgG2 complex
- fold decrease in binding vs wild-type gp120JR-FL [1]: 5 fold and 10 fold

Substance: gp120JR-FL I325A/CD4-IgG2 complex
- fold decrease in binding vs wild-type gp120JR-FL [1]: > 10 fold

Substance: gp120JR-FL R469A (from UniProt P20871 32-503)
- fold lower avidity than wild type (CD4-IgG2): 5 fold and 10 fold

Substance: gp120JR-FL Y316A/CD4-IgG2 complex
- fold decrease in binding vs wild-type gp120JR-FL [2]: 5 fold and 10 fold

Substance: gp120JR-FL D324A/CD4-IgG2 complex
- fold decrease in binding vs wild-type gp120JR-FL [1]: > 10 fold

Substance: gp120JR-FL G310A/CD4-IgG2 complex
- fold decrease in binding vs wild-type gp120JR-FL [2]: 10 fold and 5 fold

Substance: gp120JR-FL W427A (from UniProt P20871 32-503)
- fold lower avidity than wild type (CD4-IgG2): 5 fold and 10 fold

Substance: anti-gp120 MAb 17b (antibody)
- % inhibition of complex binding to sulfopeptide 2-18 [3]: > 90%
- % inhibition of complex binding to sulfopeptide 2-18 [4]: > 90%

Substance: gp120JR-FL I420A/CD4-IgG2 complex
- fold decrease in binding vs wild-type gp120JR-FL [1]: 5 fold and 10 fold

Substance: gp120JR-FL T303A/CD4-IgG2 complex
- fold decrease in binding vs wild-type gp120JR-FL [1]: > 10 fold

Substance: gp120DH123/CD4-IgG2 complex
- IC50 [5]: 5 nM
- fold less binding than gp120JR-FL [6]: 5 fold

Substance: gp120JR-FL F315A/CD4-IgG2 complex
- fold decrease in binding vs wild-type gp120JR-FL [2]: 5 fold and 10 fold

Substance: gp120JR-FL R419A/CD4-IgG2 complex
- fold decrease in binding vs wild-type gp120JR-FL [1]: 5 fold and 10 fold

Substance: gp120JR-FL K421A/CD4-IgG2 complex
- fold decrease in binding vs wild-type gp120JR-FL [1]: 5 fold and 10 fold

Substance: gp120JR-FL/CD4-IgG2 complex
- IC50 [5]: 1 nM
- fold lower avidity than for sulfopeptide 2-18 [7]: 3 fold
- fold less avid than for sulfopeptide 2-18 [8]: > 10 fold
- fold less avid than for sulfopeptide 2-18 [9]: > 10 fold
- fold less avid than for sulfopeptide 2-18 [10]: > 10 fold
- m.f.i. [11]: 40 m.f.i.

Substance: gp120JR-FL P311A/CD4-IgG2 complex
- fold decrease in binding vs wild-type gp120JR-FL [2]: 5 fold and 10 fold

Substance: CCR5 Nt peptide S-3/10/14
- inhibition of entry of Nlluc+env- particles pseudotyped with HIV-1JR-FL envelope (luciferase; HeLa-CD4+CCR5+ and U87MG-CD4+CCR5+ cells; peptide 100 µM) (gp120JR-FL (HIV-1 JR-FL)): 50%

Substance: gp120JR-FL R298A/CD4-IgG2 complex
- fold decrease in binding vs wild-type gp120JR-FL [1]: > 10 fold

Substance: anti-V3 loop MAb 19b (antibody)
- % inhibition of complex binding to sulfopeptide 2-18 [3]: 80%
- % inhibition of complex binding to sulfopeptide 2-18 [4]: > 90%

Substance: gp120JR-FL N301A/CD4-IgG2 complex
- fold decrease in binding vs wild-type gp120JR-FL [1]: > 10 fold

Substance: gp120JR-FL R440A (from UniProt P20871 32-503)
- fold lower avidity than wild type (CD4-IgG2): 5 fold and 10 fold

— patent US20030139571A1
